Experimental data published in patent publication US20240024501A1 (BONUM THERAPEUTICS, published 2024).
Positions count from the first letter of the chain named.

B1: AF4379 (other)
heavy: APTSSSTKKTQLQLEHLLLDLQMILNGINNYKNPKLTDMLTFEFYMPKKATELKHLQCLERELKPLEEVLNLAQSKNFHLRPRDLISNINVIVLELKGSETTFMCEYADETATIVEFLNRWITFCQSIISTLTGGGGSGGGGSGGGGSGGGGSQVQLVQSGAEVKKPGASVKVSCKASGDTFTRYYVHWVRQAPGQGLEWMGIINPSGGYASYAQKFQGRVTMTRDTSTSTVYMELSSLRSEDTAVYYCAAGLFIWGQGTLVTVSSAKTTAPSVYPLAPVCGDTTGSSVTLGCLVKGYFPEPVTLTWNSGSLSSGVHTFPAVLQSDLYTLSSSVTVTSSTWPSQSITCNVAHPASSTKVDKKIEPRGPTIKPCPPCKCPAPNAAGGPSVFIFPPKIKDVLMISLSPIVTCVVVDVSEDDPDVQISWFVNNVEVHTAQTQTHREDYNSTLRVVSALPIQHQDWMSGKEFKCKVNNKDLGAPIERTISKPKGSVRAPQVYVLPPPEEEMTKKQVTLTCMVTDFMPEDIYVEWTNNGKTELNYKNTEPVLDSDGSYFMYSKLRVEKKNWVERNSYSCSVVHEGLHNHHTTKSFSRTPGK
light: DIQMTQSPSSLSASVGDRVTITCRASQSIGRYLAWYQQKPGKAPKLLIYSASNLETGVPSRFSGSGSGTDFTLTISSLQPEDFATYYCQQYNSFPVTFGPGTKVDIKRADAAPTVSIFPPSSEQLTSGGASVVCFLNNFYPKDINVKWKIDGSERQNGVLNSWTDQDSKDSTYSMSSTLTLTKDEYERHNSYTCEATHKTSTSPIVKSFNRNEC
B2: AF4389 (other)
heavy 1: B1 heavy with D180H, V187M, S212T, A251S, K558D, K588E
heavy 2: QVQLVQSGAEVKKPGASVKVSCKASGHTFTRYYMHWVRQAPGQGLEWMGIINPSGGYATYAQKFQGRVTMTRDTSTSTVYMELSSLRSEDTAVYYCASGLFIWGQGTLVTVSSAKTTAPSVYPLAPVCGDTTGSSVTLGCLVKGYFPEPVTLTWNSGSLSSGVHTFPAVLQSDLYTLSSSVTVTSSTWPSQSITCNVAHPASSTKVDKKIEPRGPTIKPCPPCKCPAPNAAGGPSVFIFPPKIKDVLMISLSPIVTCVVVDVSEDDPDVQISWFVNNVEVHTAQTQTHREDYNSTLRVVSALPIQHQDWMSGKEFKCKVNNKDLGAPIERTISKPKGSVRAPQVYVLPPPEKEMTKKQVSLTCLVKDFMPEDIYVEWTNNGKTELNYKNTEPVLKSDGSYFMYSKLTVEKKNWVERNSYSCSVVHEGLHNHHTTKSFSRTPGGGGSGGGSHHHHHH
light: DIQMTQSPSSLSASVGDRVTITCRASQSINSWLAWYQQKPGKAPKLLIYATSTLESGVPSRFSGSGSGTDFTLTISSLQPEDFATYYCQQYYRFPVTFGQGTKVEIKRADAAPTVSIFPPSSEQLTSGGASVVCFLNNFYPKDINVKWKIDGSERQNGVLNSWTDQDSKDSTYSMSSTLTLTKDEYERHNSYTCEATHKTSTSPIVKSFNRNEC
B3: AF4403 (other)
heavy 1: QVQLVESGGGVVQPGRSLRLDCKASGITFSNSGMHWVRQAPGKGLEWVAVIWYDGSKRYYADSVKGRFTISRDNSKNTLFLQMNSLRAEDTAVYYCATNDDYWGQGTLVTVSSAKTTAPSVYPLAPVCGDTTGSSVTLGCLVKGYFPEPVTLTWNSGSLSSGVHTFPAVLQSDLYTLSSSVTVTSSTWPSQSITCNVAHPASSTKVDKKIEPRGPTIKPCPPCKCPAPNAAGGPSVFIFPPKIKDVLMISLSPIVTCVVVDVSEDDPDVQISWFVNNVEVHTAQTQTHREDYNSTLRVVSALPIQHQDWMSGKEFKCKVNNKDLGAPIERTISKPKGSVRAPQVYVLPPPEKEMTKKQVSLTCLVKDFMPEDIYVEWTNNGKTELNYKNTEPVLKSDGSYFMYSKLTVEKKNWVERNSYSCSVVHEGLHNHHTTKSFSRTPGGGGGSGGGGSGGGGSGGGGSQVQLVQSGAEVKKPGASVKVSCKASGDTFTRYYVHWVRQAPGQGLEWMGIINPSGGYASYAQKFQGRVTMTRDTSTSTVYMELSSLRSEDTAVYYCAAGLFIWGQGTLVTVSSASGGGGSGGGGSGGGGSHASDIQMTQSPSSLSASVGDRVTITCRASQSIGRYLAWYQQKPGKAPKLLIYSASNLETGVPSRFSGSGSGTDFTLTISSLQPEDFATYYCQQYNSFPVTFGPGTKVDIKGGGSGGGSHHHHHH
heavy 2: QVQLVESGGGVVQPGRSLRLDCKASGITFSNSGMHWVRQAPGKGLEWVAVIWYDGSKRYYADSVKGRFTISRDNSKNTLFLQMNSLRAEDTAVYYCATNDDYWGQGTLVTVSSAKTTAPSVYPLAPVCGDTTGSSVTLGCLVKGYFPEPVTLTWNSGSLSSGVHTFPAVLQSDLYTLSSSVTVTSSTWPSQSITCNVAHPASSTKVDKKIEPRGPTIKPCPPCKCPAPNAAGGPSVFIFPPKIKDVLMISLSPIVTCVVVDVSEDDPDVQISWFVNNVEVHTAQTQTHREDYNSTLRVVSALPIQHQDWMSGKEFKCKVNNKDLGAPIERTISKPKGSVRAPQVYVLPPPEEEMTKKQVTLTCMVTDFMPEDIYVEWTNNGKTELNYKNTEPVLDSDGSYFMYSDLRVEKKNWVERNSYSCSVVHEGLHNHHTTESFSRTPGGGGGSGGGGSGGGGSAPTSSSTKKTQLQLEHLLLDLQMILNGINNYKNPKLTDMLTFEFYMPKKATELKHLQCLERELKPLEEVLNLAQSKNFHLRPRDLISNINVIVLELKGSETTFMCEYADETATIVEFLNRWITFCQSIISTLT
light: EIVLTQSPATLSLSPGERATLSCRASQSVSSYLAWYQQKPGQAPRLLIYDASNRATGIPARFSGSGSGTDFTLTISSLEPEDFAVYYCQQSSNWPRTFGQGTKVEIKRADAAPTVSIFPPSSEQLTSGGASVVCFLNNFYPKDINVKWKIDGSERQNGVLNSWTDQDSKDSTYSMSSTLTLTKDEYERHNSYTCEATHKTSTSPIVKSFNRNEC
B4: AF4404 (other)
heavy 1: QVQLVESGGGVVQPGRSLRLDCKASGITFSNSGMHWVRQAPGKGLEWVAVIWYDGSKRYYADSVKGRFTISRDNSKNTLFLQMNSLRAEDTAVYYCATNDDYWGQGTLVTVSSAKTTAPSVYPLAPVCGDTTGSSVTLGCLVKGYFPEPVTLTWNSGSLSSGVHTFPAVLQSDLYTLSSSVTVTSSTWPSQSITCNVAHPASSTKVDKKIEPRGPTIKPCPPCKCPAPNAAGGPSVFIFPPKIKDVLMISLSPIVTCVVVDVSEDDPDVQISWFVNNVEVHTAQTQTHREDYNSTLRVVSALPIQHQDWMSGKEFKCKVNNKDLGAPIERTISKPKGSVRAPQVYVLPPPEKEMTKKQVSLTCLVKDFMPEDIYVEWTNNGKTELNYKNTEPVLKSDGSYFMYSKLTVEKKNWVERNSYSCSVVHEGLHNHHTTKSFSRTPGGGGGSGGGGSGGGGSGGGGSQVQLVQSGAEVKKPGASVKVSCKASGYTFTDYYMHWVRQAPGQGLEWMGIINPRAGYTSYALKFQGRVTMTRDTSTSTVYMELSSLRSEDTAVYYCTSGWDVWGQGTLVTVSSASGGGGSGGGGSGGGGSHASDIQMTQSPSSLSASVGDRVTITCRASQSISTWLAWYQQKPGKAPKLLIYAASSLDSGVPSRFSGSGSGTDFTLTISSLQPEDFATYYCQQSYSFPVTFGQGTKVEIKGGGSGGGSHHHHHH
heavy 2: B3 heavy 2
light: B3 light
B5: AF4386 (other)
heavy 1: B1 heavy with K558D, K588E
heavy 2: B2 heavy 2 with H27D, M34V, T59S, S98A
light: B1 light

target: PD-1-Fc (UniProt Q15116 25-167, limits assumed); assay: cell-based or functional assay
Sequence (Q15116 25-167 limits assumed): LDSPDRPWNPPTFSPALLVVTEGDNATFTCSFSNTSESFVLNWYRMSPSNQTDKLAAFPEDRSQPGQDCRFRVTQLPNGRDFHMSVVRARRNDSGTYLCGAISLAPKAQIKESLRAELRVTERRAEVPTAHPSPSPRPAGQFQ

Binder	EC50 of IL-2 activity, HEK-Blue IL-2 reporter cells, IgG1 coated wells (no PD-1) [nM]	EC50 of IL-2 activity, HEK-Blue IL-2 reporter cells, PD-1 coated wells [nM]	EC50 of IL-2 activity, HEK-Blue IL-2 reporter cells, control wells (no PD-1) [nM]
B1	0.062	0.031	
B2	1.67	0.118	
B3		0.031	0.062
B4		0.026	0.064
B5	1.79	0.05	
